Reference: patent publication US20240352145A1, “EFFICACY OF ANTI-TROP-2-SN-38 ANTIBODY DRUG CONJUGATES FOR THERAPY OF TUMORS RELAPSED/REFRACTORY TO CHECKPOINT INHIBITORS” (Immunomedics, Inc., priority 2016, published 2024)

What was measured:
Trop-2 = biological target: T1, Trop-2 (Homo sapiens, UniProt P09758); test: Trop-2 ELISA, human; type: binding; design: purchased Sino Biological, Inc. 10428-H09H
T1 sequence (P09758 27-323): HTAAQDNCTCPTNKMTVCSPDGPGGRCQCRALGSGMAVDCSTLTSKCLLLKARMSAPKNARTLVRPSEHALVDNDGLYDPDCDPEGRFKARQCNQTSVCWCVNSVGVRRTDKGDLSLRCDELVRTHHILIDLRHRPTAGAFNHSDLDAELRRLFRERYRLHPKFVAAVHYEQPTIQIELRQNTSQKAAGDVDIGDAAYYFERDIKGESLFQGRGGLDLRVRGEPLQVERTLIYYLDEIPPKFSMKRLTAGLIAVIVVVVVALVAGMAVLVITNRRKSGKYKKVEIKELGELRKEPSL
Procedure: Trop-2 ELISA—Recombinant human Trop-2 with a His-tag (Sino Biological, Inc., Bejing, China; Cat #10428-H09H) and recombinant mouse Trop-2 with a His-Tag (Sino Biological, Inc., Cat #50922-M08H) were plated onto Ni-NTA Hissorb strips (Qiagen GmbH Cat #35023) at 1 μg for 1 h at room temperature. The plate was washed four times with PBS-Tween (0.05%) wash buffer. Serial dilutions of hRS7 were made in 1% BSA-PBS dilution buffer to a test range of 0.1 ng/mL to 10 μg/mL. The plates were then incubated for 2 h at room temperature before being washed four times followed by the addition of a peroxidase conjugated secondary antibody (goat anti-human, Fc fragment specific; Jackson Immunoresearch Cat #109-036-098). After a 45-min incubation, the plate was washed and a substrate solution (o-phenylenediamine dihydrochloride (OPD); Sigma, Cat #P828) added to all the wells. Plates were incubated in the dark for 15 min before the reaction was stopped with 4N sulfuric acid. The plates were read at 450 nm on Biotek ELX808 plate reader. Data were analyzed and graphed using Prism GraphPad Software (v4.03) (Advanced Graphics Software, Inc.; Encinitas, CA).

NCI-N87 = test: Cytotoxicity (MTS), Example 6, NCI-N87; type: cell-based, human; details: NCI-N87, 96 h
Procedure: (§1) One day prior to adding the ADCs, cells were harvested from tissue culture and plated into 96-well plates. […] Plates were incubated at 37° C. for 96 h. […] Growth inhibition was measured as a percent of growth relative to untreated cells using Microsoft Excel and Prism software (non-linear regression to generate sigmoidal dose response curves which yield IC50-values.

[1] = Tolerability in Swiss-Webster mice; type: in vivo, mouse
Calu-3 = test: In vitro cytotoxicity, Calu-3
[2] = test system: triple-negative breast cancer
BxPC-3 [3] = test: In vitro cytotoxicity, BxPC-3
[4] = test system: NCI-N87 human gastric tumor xenografts; test: Dose schedules and chronic dosing, NCI-N87 xenograft; type: in vivo, mouse
Description: In Vivo Therapeutic Studies—NCr female athymic nude (nu/nu) mice, 4-8 weeks old, were purchased from Taconic Farms (Germantown, NY). NCI-N87 gastric tumor xenografts were established by harvesting cells from tissue culture and making a final cell suspension 1:1 in matrigel (BD Bioscience; San Jose, CA), with each mouse receiving a total of 1×10^7 cells s.c. in the right flank. For BxPC-3. xenografts of 1 g were harvested, and a tumor suspension made in HBSS to a concentration of 40% tumor w/v. This suspension was mixed 1:1 with matrigel for a final tumor suspension of 20% w/v. […] For IHC, tumors were allowed to grow to approximately 0.5 cm^3 before the mice were euthanized and the tumors removed, formalin-fixed and paraffin-embedded. For therapy studies, mice were randomized into treatment groups and therapy begun when tumor volumes were approximately 0.25 cm^3.
Mice were euthanized and deemed to have succumbed to disease once tumors grew to greater than 1.0 cm^3 in size. […] Time to progression (TTP) was determined as time post-therapy initiation when the tumor grew more than 20% in size from its nadir.
A similar dose schedule experiment was performed in mice bearing NCI-N87 human gastric tumor xenografts (not shown). […] Likewise, in terms of overall survival, while all three dose schedules provided a significant survival benefit when compared to untreated control (P<0.0001), there were no differences between any of these three different schedules.
In all, four treatment cycles were administered to the animals.

[5] = Tolerability in Cynomolgus monkeys; type: in vivo, Macaca fascicularis
BxPC-3 [6] = test: Cytotoxicity (MTS), Example 7, BxPC-3; type: cell-based, human; details: BxPC-3, 96 h
Procedure: as §1, with “ADC,” for “ADCs,”, “plates at 2000 cells per well.” for “plates.”, “IC50-values).” for “IC50-values.”

## hRS7 IgG
Trop-2
  Kd: 0.3 nM

## IMMU-132
NCI-N87
  IC50: 3.6 nM
[1]; 2 doses of 4, 8, 12 mg SN-38/kg
  hematopoietic toxicity: No hematopoietic toxicity occurred
[1]; 2 doses over 3 days, each of 4, 8, and 12 mg SN-38/kg
  tolerability, weight loss: minimal transient weight loss
[1]; mouse, in vivo
  aspartate transaminase (AST): > 298 U/L
  liver histology: did not show histologic evidence of tissue damage
  mice with slightly elevated glucose: 5 of 7
[1]; normal mice, no acute toxicity
  MTD, cumulative dose over 1 week: > 24 mg/kg SN-38
Calu-3
  IC50: 9.97 nM
[2]; after 3 therapy cycles, 12 mg/kg then 9 mg/kg
  decrease in sum of long diameter of target lesions: 43%
[2]; first response assessment
  response: partial response by RECIST criteria
BxPC-3 [3]
  IC50: 4.03 nM
[4]; 0.5 mg once a week for two weeks, one week off, four cycles
  TTP: 15.7 ± 11.1 days
[4]; all dosing scheme evaluations, body weight
  treatment-related toxicities: no treatment-related toxicities were observed
[4]; chronic dosing
  increase in median survival vs control ADC: 3 fold
[4]; chronic dosing, four cycles
  median survival: 63 days
[5]; 2x0.96 mg SN-38/kg
  serum chemistries: No abnormal values
  weight loss: ≤ 7.3%
[5]; 2x0.96 mg SN-38/kg, day 11
  histopathology, microscopic changes: minimal to moderate
[5]; 2x0.96 mg/kg, transient decreases, listed as sacituzumab govitecan
  blood counts: the values did not fall below normal ranges
[5]; 2x1.92 mg SN-38/kg, gastrointestinal complications and bone marrow suppression
  deaths: 1
[5]; cynomolgus monkey, in vivo
  extrapolated human dose: ~0.3 mg/kg/dose
BxPC-3 [6]
  IC50: 5.8 nM
Metastatic PDC; 8/13 PDC patients
  patients with long-term stable disease: 62%
Metastatic PDC; 8.0 weeks estimated from last prior therapy
  median TTP, CT assessable patients: 12.7 wks
Metastatic PDC; 13 assessable patients
  stable disease, number of patients: 8
Metastatic PDC; case
  response: stable disease by CT RECIST criteria
Metastatic PDC; case, from 15885 U/mL
  CA19-9 after treatment: 4418 U/mL
Metastatic PDC; in vivo
  Alopecia (Grades 1-2), patients: 5 of 9
  Grade 3-4 nausea or vomiting: no patient
  Phase 2 dose: 8 to 10 mg/kg
  median TTP, all 14 patients: 11.9 wks
  neutropenia ≥G3: 33%
  patients with Grade 3 diarrhea: Two
  progressive disease by RECIST, patients: Five
Metastatic PDC; person, 8 mg/kg days 1 and 8 of 21 day cycle
  maximum decline in CA19-9: 72%
